Results as given in patent publication US5198424A, “Functionally active selectin-derived peptides” (Board of Regents of the University of Oklahoma, priority 1992, dated 1993).

Target: T1, GMP-140 (Homo sapiens, UniProt P16109)
T1 sequence (P16109 42-830): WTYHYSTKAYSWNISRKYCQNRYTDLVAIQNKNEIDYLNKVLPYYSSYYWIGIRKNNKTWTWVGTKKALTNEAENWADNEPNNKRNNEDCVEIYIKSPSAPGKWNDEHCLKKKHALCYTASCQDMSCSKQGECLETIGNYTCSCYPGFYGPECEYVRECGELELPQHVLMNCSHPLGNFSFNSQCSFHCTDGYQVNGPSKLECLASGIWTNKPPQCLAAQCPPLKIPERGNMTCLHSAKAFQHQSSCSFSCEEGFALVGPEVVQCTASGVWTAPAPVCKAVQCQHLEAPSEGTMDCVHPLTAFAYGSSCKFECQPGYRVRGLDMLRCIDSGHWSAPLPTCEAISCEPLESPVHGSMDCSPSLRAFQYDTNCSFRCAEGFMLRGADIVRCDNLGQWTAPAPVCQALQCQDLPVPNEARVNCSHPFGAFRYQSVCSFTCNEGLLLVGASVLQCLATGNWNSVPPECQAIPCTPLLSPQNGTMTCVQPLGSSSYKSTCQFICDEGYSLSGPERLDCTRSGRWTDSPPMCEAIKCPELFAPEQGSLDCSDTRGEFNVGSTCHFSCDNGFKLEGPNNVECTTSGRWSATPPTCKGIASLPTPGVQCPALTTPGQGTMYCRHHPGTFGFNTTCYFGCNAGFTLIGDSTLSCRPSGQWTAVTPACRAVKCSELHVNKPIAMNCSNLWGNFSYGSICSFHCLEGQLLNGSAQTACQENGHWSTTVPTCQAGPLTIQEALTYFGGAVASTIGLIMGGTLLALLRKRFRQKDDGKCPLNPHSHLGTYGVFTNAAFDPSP
Test: Binding of stimulated platelets to neutrophils in the presence of Ca2+
Assay type: cell-based
Set-up: GMP-140 also mediates adhesion of neutrophils to stimulated platelets; endogenous in cells; host or cells: stimulated platelets

binding of platelets to neutrophils: inhibited
B1: GMP-140: granule membrane protein 140, isolated from human platelet lysates by immunoaffinity and ion-exchange chromatography (protein, UniProt P16109 42-830, looked up)
P-selectin: T1 sequence (P16109 42-830)
